The DeepSol protein solubility set

Test: soluble on expression in E. coli; label from the status in PepcDB or PDB records

Row | Sequence | soluble on expression in E. coli
1 | MSLDNKRRFALVGTGNRGTTMWGRDLLAGWRGLVDLVAIADTNALRAERARTMIATNAPVYGNVDAMLAETRPDLVIVCTPDDTHDDIVVRALESGADVITEKPMSTTVEKIRRILDAEKRTGRRVDVSFNYRFAPTAARIKELLNAGEIGRVTSVDFHWYLDTRHGADYFRRWHAYAEHSGSLFVHKATHHFDLLNWYLDSDPEAVSAFADLQMYGRRGPFRGPRCKLCPHKSECDFYLDLEADPFLDSLYEEPSEIDSYFRDGCVFREDIDIPDTMVANIRYRNDVHVSYSLNTFQPIEGHHIAFNGTKGRIELRQYEDQPWETPPEDEILLVRNFPKGKPAMERITVPHFPGGHYGGDDRLRNTLFEPDAKDPLGQRAGARAGAMSVLCGIAALQSSRTGKIVRLADLMPELFTDGAQPMRERLKETCSREGHHHHHH | soluble
2 | MSLDNLNLIVSLKDGGLLHFKRDEELGEINVFNFQEQGTLIPFLGFFGSGKQKDVVLDGVSSNSIVDALQIGGSGVVITLSVNKVLKLWNLDGHQNLSSLTIASDDNTWLPTIPSKYLKSYDQEDGKTIITLFINTKSGDSSKSMFVFKSFELESSNLHDLSDLSFQPELPNSLLFSSDVFYHESNFQNTIWFIQDYEVVGFGTSQLKYYILWKSNTSSILVEYTINPVNGAILSEGHHHHHH | not soluble
3 | MSLDPVGPISDEETSYYVRLQYNGEILPLFTKIEGIEYKKATDIHNPLKASFIAGGGAFGYKMDDIRVDVEGLYSQLNKNDVTGAAFNPDTVADSLTAISGLVNVYYDIAIEDMPITPYVGVGVGAAYISTPLKDAVNDQKSKFGFAGQVKAGVSYDVTPEVKLYAGARYFGSFGAHFDKDTAAASKDKGELKVLYSTVGAEAGVAFNFEGHHHHHH | not soluble
4 | MSLDQQSKEQLNIREMTKEDVPQVFDLERRSFNDSSWTIDAFYHEIEQNNFAKYFVLEFEQQIIGYLGLWIVIDQAQITTVAIDDNYRGYGLGQMLLKYGINYASHTCDVMSLEVRVNNKVAQHVYENLGFQYGGKRKNYYGEGEDAMVMWVNLNDEGHHHHHH | soluble
5 | MSLDRQLWRQFPQVEPQLTALQDYLLRTVQLDNQPIHHKILALLKSGGKLLRPGYFYLFSTFGNAATPAQLQAGAAAIEILHVGTLIHDDVIDDSPTRRGVRTIQMTYGQRNAIYAGDFMFTVYFDQVLKSTTDRSLIQNHIDAMHRILQGELHQMDLNYREDITLDAYLNEIAGKTAELFALSCYQGAQLAGAPQSVIDRTRDIGIAIGCAYQMLDDILDYAGDPKRTQKPVLEDLRSGVYSLPLLLSLSHAPRDFHKLLKKKQAMTLEDIKHVQALVAQYDGVGAAKQLAQDYTDRALTLIQQLPVGSAQQSLEQLTRLLLRRDHEGHHHHHH | soluble
6 | MSLDSACEGRFVNPITDICWSCIFPLSLGSIKVSQGKVPDTANPSMPIQICPAPAPLFRRIGLAIGYWEPMALTDVTRSPGCMVNLGFSLPAFGKTAQGTAKKDEKQVNGAFYHVHWYKYPLTYWLNIITSLGCLEGGDMDIAYLSEIDPTWTDSSLTTILNPEAVIFANPIAQGACAADAIASAFNMPLDVLFWCAGSQGSMYPFNGWVSNESSPLQSSLLVSERMAFKLHRQGMIMETIGKNNAVCNEYPSPILPKERWRYQMVNMYPDSGQCHPFGRSVMPWETGKNPPNTKKNFGYLMWRKRNCVFLEGHHHHHH | soluble
7 | MSLDSKIDILIVVNMFLTGFDSKVLNTLYVDKNLMYHDLIQAYSRTNRVEKESKPFGKIVNYRDLKKETDDALRVFSQTNDTDTILMRSYEEYKKEFMDAYRELKMIVPTPHMVDDIQDEGHHHHHH | not soluble
8 | MSLDSSISDEDTVTVRTAKQVALVVEGQIQNVTTTAVSVEDLLQEVGGITGADAVDADLSETIPESGLEHHHHHH | not soluble
9 | MSLDSSKRQFLQQLGVLTAGASLVPLAEAKFPFSPERHEGSPRHRYAMLIDLRRCIGCQSCTVSCTIENQTPQGAFRTTVNQYQVQREGSQEVTNVLLPRLCNHCDNPPCVPVCPVQATFQREDGIVVVDNKRCVGCAYCVQACPYDARFINHETQTADKCTFCVHRLEAGLLPACVESCVGGARIIGDIKDPHSRIATMLHQHRDAIKVLKPENGTSPHVFYLGLDDAFVTPLMGRAQPALWQEGHHHHHH | not soluble
10 | MSLDSSRIKVVFWHEMKGPGQQAIDAYVKAFNHQQSKYEVVAEFEGGYNGVIQKILNTHGTAASPALFQSMDISTSQMYHSGFTTPMQKFIDRDHYDADQIIPGAKAIVMRDNQLLAMPFNASQTALYYNKRVLRQYGITPPPVDPTYDDITRVAKAIHDKSHGKVKGMTMEAYSWLFEQLVANAGVPVANHDNGHTGNATKVDFTSPAAINAMKWVKENIDYGDFMNFGSGGNAAANEAASFLAGHLGIFMQSSANTGQLYQVLKNDLGVTYFPRPNGQRANGIAVGGAALWIANDKPSAVQDGAWEFTKFLASAQTQADWQAKTGYLAVNKGAKDEPTLKKLFKKSPVLEVSGNQMLRTKPNNTNSGVFVDGWVPARTAIQTAMQQIFAGQDIRQSLQTAENTYNKVLESNNRANGREGHHHHHH | soluble
11 | MSLDVDLAPPGPLAAGGLRVTALGGISEIGRNMTVFEHLGRLLIIDCGVMFPTHDEPGVDLILPDLRHIEDRLDDIEALVLTHAHEDHIGGIPYLLKLRPDIPVVGSKFTLALVAAKCREHRLKPVFVEVSEGHKSTHGVFECEYFAVNHSIPDALAIAVHTGAGTVLHTGDIKLDQLPLDGRPTDLPGMSRLGDAGVDLFLCDSTNAELPGVGPSESEVGPTLHRLIRGAEGRVIVACFASNVDRVQQIIDAAVALGRRVSFVGRSMVRNMGIARELGFLRVADADVIDIGAAELMPPERVVLITTGTQGEPMSALSRMSRGEHRSITLTAGDLVVLASSLIPGNEEAVYGVIDELAKIGARVVTNAQARVHVSGHAYAGELLFLYNGVRPRHVMPVHGTWRMLRANSKLAARTGVPEESILLAENGVSVDLVAGRASISGAVPVGKMFVDGLVDGDVGDITLGERLILSSGFVAVTVVVQRGTGRPVAPPHLHSRGFSEDPKALEPAVRRVEEELEALVAENITDPSRIAQGVRRTVGKWVGETYRRQPMIVPTVIEVEGHHHHHH | soluble
12 | MSLDVLGHVFEYFLGEFALAEGKQGGQFYTPKCVVELLVTMLEPYKGRVFDPCCGSGGMFVQSEEFVKSHQGRLDDISIYGQESNQTTYKLAKMNLAIRKIESSQVIWNNEGSFLNDAHKDLKADFIIANPPFNDSDWSGELLENDGRWKYGVPPASNANYAWIQHFLYHLSPNGGVAGFVLAKGALTSNTTNEAAIRKALIEDDLIDCIVNLPAKLFLNTGIPASLWFIRRQKLPKTVKKTLFIDARDLGTRINRRNKTLNKDDINQIANIYKAWKNGTDYEDIKGFCKSVSIDEIRELSYVLTPGRYVGLADSDDEFDFDTRFNELLAKLKSQIKTEQELSEIILKNLEKIKEGHHHHHH | not soluble
13 | MSLEAIVFDRSEPENVSVKVLDQLLLPYTTKYVPIHTIDDGYSVIKSMQVRGAPAIAIVGSLSVLTEVQLIKHNPTSDVATLYSLVNWESTKTVLNKRLDFLLSSRPTAVNLSNSLVEIKNILKSSSDLKAFDGSLYNYVCELIDEDLANNMKMGDNGAKYLIDVLQKDGFKDEFAVLTICNTGSLATSGYGTALGVIRSLWKDSLAKTDK | soluble
14 | MSLEALLSEDVKIIASALKAAIDKDRKSTSKREAETGIRYYNHENDIMNNRIFYVDDEGVLREDKYASNVRIPHGFFPEIVDQKTQYLLSNPVEYETENEELKEYLAEYYNSEFQVVLQELVEGSSQKGFEYVYARTNAEDRLCFQVADSLNVFGVYNEYNELQRICRHYITEIEKDGETVDIHHAEVWTDQNVYFFVAEDNKDYELDEAEPINPRPHVLAVDSDNESLLQRSYGQIPFYRLSNNKQETTDLKSIKALIDDYDLMNCFLSNNLQDFAEAIYVVSGFQGDDLSKLRQNVKSKKVVGTGSDGGLDVKTVTIPTEGRKTKMEIDKENIYKFGMAFDSTQVGDGNITNIVIKARYTLLNMKANKTEARLRALLEWMNKLVIDDINRRYTKAFDPTEVSFTFTREVMVNETDIVNNEKTEAETRKIILESILQVAPRLDDDNVLRLICEQFDLDWEDVKEALEEAEYTQGLTDNTDEEETAEGHHHHHH | soluble
15 | MSLEDCRISRVELYALADENAPPIPWADNQEPLLYTNNIVRLFTEDGTEGLGATMSYTENFFDRCIIESLRTIVPGLIGKNPLMTQELNNWLGARCTWGGLPAKSPIDIAAWDIKGKKAGMPLYMLLGGARTKIKSYASTPMFDTVEEYFPYIDDCIEHGFTAIKLHCYCVYDKDVALVEAVEAKYGTSGIRFMLDTAGFYTPEQAMKMAKWMERHNWEWLEAPVSDYDFKTYQRLVANTDLEISSHGNCLLTLQEVTHALSTGMWSDVRQDATVCGGITQLNKCFAIAAGHSKNLEIQSMGYTLTQAANLHVALAHDNCNFFEQFYPYEAFELASKTQIRTDKEGYVHAPAGNGLGVEMDWDAVKEASFASYVFEEGHHHHHH | soluble
16 | MSLEDSKASLETRNFYMNRDFRDGPGQSKREEWAQGFILNLQSGYTQGTVGFGLDAMGMLGVKLDSGRGRSGTGLLPKDSDGRAPDTYSKLGLTAKVKVSQSELKVGTLIPKLPSVQPNNGRIFPQIFEGALLTSKEIKDLGFTAGRLEKTKIRDSSDSEDLALNDKNGRFAGVSADHFDLGGLDYKLTDQLTASYHYSNLQDVYRQHFVGLLHSWPIGPGELTSDLRFARSTDSGSAKAGGIDNKSLNGMFTYSLGNHAFGAAWQRMNGDDAFPYLEGSNPYLVNFVQVNDFAGPKERSWQLRYDYDFVGLGIPGLTFMTRYVKGDNVELAGQSGEGREWERNTELQYVFQSGALKNLGIRWRNATFRSNFTRDIDENRLIVSYTLPIWEGHHHHHH | soluble
17 | MSLEFLRDFGKTALIHQGNEISYAELLENIASFANLMDITPNERVGIVMENRPEWVYAFYGTWKKGGIVVPIDFMSTPQEIRYILEDAEPSIIFCSDETYPRVREASEDLKVEIVNVDNLVLPTPWEGIVRRDEDDVAVLPYTSGTTGNPKGVMLTFKNLMSNIRGVSEVGIAGKEDKTLAILPFHHMYPLMTTMLLPLYLGATVVFLDKLTPEDIIEKLQKYQITVLIGVPRLYQLFHRRIMEEINKNVLAKNLFKLMKKVKNQKIRKTVFKKVHDAFGGRIKYMVSGGAKLPLDIAQDLTTLGFTVIEGYGLTETSPIVSFNPPNRIKLGSVGVPIKGVEVMTTSEGEIIVRGDNVMKGYWKKPEETQKVIINGWFYTGDLGEIDEEGYIYITGRKKEIIVLGSGKNVFPEEIESKILAKAPYIKEVGVFEKDGKLLALIYPDFEKVKELGITNLEETIKWEVIDKVNRELPEWKRVVGFKIVKTELPKTRLGKLRRFLLPQIYEKAEEIKEEKTEDYSVFETEEGRIIKEFLEKISQKEVKPGDHLEIDLGLDSLAKVELLGFIETNFGVSLSEEELSKNLVVKDLIELVRSKKKSVDTKEVSWKDILTKAKPYELYHYPLIFELGRKLLKLYFKLYHRIDVRGLENLPKPPFIIAPNHQSYLDAFAIAAVLPKEIAHETYFLGDETYFRNPITSTFGKLAHVITVNVNKGLKESLQKTAYALMSGKVVVIFPEGARTRTEELMEFKKGVAILARELGVPIVPVAIEGAYEAWSVYDKFPKPKKIKIMFGKPVDPDEKSYEEITKELYEWIKSMLEFLKKESEGHHHHHH | soluble
18 | MSLEKPKYKRIVLKLSGEALAGEQGNGINPTVIQSIAKQVKEIAELEVEVAVVVGGGNLWRGKTGSDLGMDRATADYMGMLATVMNSLALQDSLETLGIQSRVQTSIEMRQVAEPYIRRKAIRHLEKKRVVIFAAGTGNPYFSTDTTAALRAAEIEADVILMAKNNVDGVYNADPRKDESAVKYESLSYLDVLKDGLEVMDSTASSLCMDNDIPLIVFSIMEEGNIKRAVIGESIGTIVRGKEGHHHHHH | soluble
